Reference: the supplement of paper PMC7125110
± gives the standard error. For some assays here: Fewer inactive variants are shown than the library holds.

B1: glmS ribozyme (parent)
chain: AUAAAAGCGCCAGAACUACAGAAAUGUAGUUGACGAGGAGGAGGUUUAUCGAAUUUUCGGCGGAUGCCUCCAAA

Legend:
Conditions in all cases: with glucosamine-6-phosphate
[1] = variants of: B1; test: kcat; higher = faster cleavage; RNA array
In short: (§1)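 Barcoded ribozyme variants, transcribed in situ by E. coli RNA polymerase on sequenced MiSeq chips, were followed via a hybridised Cy3 probe at 37 °C. Glucosamine-6-phosphate ranged from 40 μM to 10 mM in HEPES/KCl/Mg(OAc)2 buffer. kobs came from decay fits to per-tile medians, and kcat and KM from weighted Michaelis–Menten fits.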

[2] = variants of: B1; test: self-cleavage kobs at 40 uM GlcN6P; higher = faster cleavage; RNA array
In short: as §1

[3] = variants of: B1; test: self-cleavage kobs at 160 uM GlcN6P; higher = faster cleavage; RNA array
In short: as §1

[4] = variants of: B1; test: self-cleavage kobs at 10000 uM GlcN6P; higher = faster cleavage; RNA array
In short: as §1

[5] = variants of: B1; test: KM; higher = weaker cofactor use; RNA array
In short: as §1

[6] = variants of: B1; test: self-cleavage kobs at 640 uM GlcN6P; higher = faster cleavage; RNA array
In short: as §1

[7] = variants of: B1; test: self-cleavage kobs at 2500 uM GlcN6P; higher = faster cleavage; RNA array
In short: as §1

| Variant | kcat [1] | self-cleavage kobs at 40 uM GlcN6P [2] | self-cleavage kobs at 160 uM GlcN6P [3] | self-cleavage kobs at 10000 uM GlcN6P [4] | KM [5] | self-cleavage kobs at 640 uM GlcN6P [6] | self-cleavage kobs at 2500 uM GlcN6P [7] |
| --- | --- | --- | --- | --- | --- | --- | --- |
| U30G G59U | 1.09e-05 ± 1.8e-06 s⁻¹ | < 1e-05 s⁻¹ |  |  |  |  |  |
| A6U U30A A36C | < 1e-05 s⁻¹ |  | < 1e-05 s⁻¹ | < 1e-05 s⁻¹ |  |  |  |
| A12U G43A | 0.000218 ± 2.6e-05 s⁻¹ |  |  | 0.000173 ± 2.2e-05 s⁻¹ | 2010 ± 540 µM | 4.88e-05 ± 1e-05 s⁻¹ | 0.000139 ± 1.8e-05 s⁻¹ |
| U49A C50G C71U | 1.88e-05 ± 4.4e-06 s⁻¹ |  |  |  |  |  |  |
| G13A C67G | 2.66e-05 ± 2.6e-06 s⁻¹ | < 1e-05 s⁻¹ |  | 2.48e-05 ± 6.5e-06 s⁻¹ |  | 2.71e-05 ± 1.2e-05 s⁻¹ | 3.63e-05 ± 1.7e-05 s⁻¹ |
| A33C C70U | 1.19e-05 ± 4.5e-06 s⁻¹ |  |  |  |  |  |  |
| G9C C61G | 0.00838 ± 0.0021 s⁻¹ | 9.12e-05 ± 1.6e-05 s⁻¹ | 0.000309 ± 5.7e-05 s⁻¹ | 0.00575 ± 0.00085 s⁻¹ | 4330 ± 1400 µM | 0.000828 ± 0.00017 s⁻¹ | 0.00371 ± 0.00066 s⁻¹ |
| A48U U54G | 0.000434 ± 0.00011 s⁻¹ |  | 6.29e-05 ± 1.9e-05 s⁻¹ | 0.000397 ± 9.1e-05 s⁻¹ |  | 8.39e-05 ± 4.1e-05 s⁻¹ | 0.000261 ± 0.0001 s⁻¹ |
| U55C U69A | 1.74e-05 ± 6.8e-06 s⁻¹ |  |  |  |  |  |  |
| U55C C70A | 1.26e-05 ± 1.6e-06 s⁻¹ | < 1e-05 s⁻¹ |  |  |  |  |  |
| A15G U31G A39U | 0.00331 ± 0.0014 s⁻¹ | 3.3e-05 ± 1.1e-05 s⁻¹ | 0.000104 ± 1.8e-05 s⁻¹ | 0.00265 ± 0.00042 s⁻¹ |  | 0.000575 ± 0.00013 s⁻¹ | 0.000869 ± 0.00014 s⁻¹ |
| A39G A48U | 0.00118 ± 0.00016 s⁻¹ |  |  | 0.000774 ± 0.00011 s⁻¹ | 5000 ± 1200 µM | 0.000139 ± 3.1e-05 s⁻¹ | 0.000436 ± 8.7e-05 s⁻¹ |
| U31A G66A | 0.0119 ± 0.0032 s⁻¹ | 0.000105 ± 3.4e-05 s⁻¹ | 0.000259 ± 6.1e-05 s⁻¹ | 0.00767 ± 0.0017 s⁻¹ | 6540 ± 2200 µM | 0.00114 ± 0.00021 s⁻¹ | 0.00305 ± 0.00048 s⁻¹ |
| C8A G60A | < 1e-05 s⁻¹ |  | < 1e-05 s⁻¹ |  | 86.3 ± 25 µM |  |  |
| A42G G51A | < 1e-05 s⁻¹ | < 1e-05 s⁻¹ |  | < 1e-05 s⁻¹ |  |  |  |
| U45C U54C | 0.00224 ± 0.00051 s⁻¹ |  | 0.000142 ± 3.9e-05 s⁻¹ | 0.00213 ± 0.00063 s⁻¹ | 2240 ± 770 µM | 0.00057 ± 0.00012 s⁻¹ | 0.00105 ± 0.00023 s⁻¹ |
| A64U C67U | 5.93e-05 ± 6.4e-06 s⁻¹ |  |  | 5.31e-05 ± 6.3e-06 s⁻¹ |  |  | 5.62e-05 ± 8.7e-06 s⁻¹ |
| G13C A14U C68U | 1.07e-05 ± 1.2e-06 s⁻¹ |  |  |  |  |  |  |
| U31G G43A | 1.25e-05 ± 3.3e-06 s⁻¹ |  |  |  |  |  |  |
| U54C C67G | 0.000821 ± 0.00019 s⁻¹ | 5.95e-05 ± 1.1e-05 s⁻¹ | 0.000179 ± 2.6e-05 s⁻¹ | 0.00137 ± 0.00026 s⁻¹ | 534 ± 220 µM | 0.000519 ± 7.3e-05 s⁻¹ | 0.000553 ± 8.6e-05 s⁻¹ |
